{"source": "paper PMC8852740", "about": "“Neutralization of Typhoid Toxin by Alpaca-Derived, Single-Domain Antibodies Targeting the PltB and CdtB Subunits” (Infection and Immunity, 2021)", "conditions_in_all_cases": "both partners purified", "key": {"[1]": {"molecular_target": "T1, typhoid toxin (A2B5 holotoxin: CdtB, PltA and a PltB homopentamer), biotinylated (Salmonella enterica serovar Typhi; …, UniProt Q8Z6A7;Q8Z6A4;Q8Z6A3)", "T1 construct": "also called TyT; biotinylated typhoid toxin; not shown: His6, C-terminal, kept; copies: 1 + 1 + 5", "test": "BLI; Octet Red96e; […] (2 µg/mL) […]; association 5 min, dissociation 30 min; 25°C; 1:1 model; […]"}, "[2]": {"molecular_target": "T2, typhoid toxin (A2B5 holotoxin: CdtB, PltA and a PltB homopentamer), biotinylated (Salmonella enterica serovar Typhi; …, UniProt Q8Z6A7;Q8Z6A4;Q8Z6A3)", "T2 construct": "also called TyT; biotinylated typhoid toxin; not shown: His6, C-terminal, kept; copies: 1 + 1 + 5", "test": "ELISA; […] (30 min, 37°C) […]"}, "[3]": {"molecular_target": "T2, typhoid toxin (A2B5 holotoxin: CdtB, …)", "test": "BLI; Octet Red96e; […] (2 µg/mL) […]; association 5 min, dissociation 30 min; 25°C; 1:1 model; […]", "remark": "listed apart in the source"}, "[4]": {"molecular_target": "T3, PltB homopentamer, biotinylated (Salmonella enterica serovar Typhi; …, UniProt Q8Z6A3, biotinylated with EZ-link NHS-Biotin (sites not given))", "T3 construct": "also called PltB5; pentameric PltB subunits", "test": "ELISA; […] (30 min, 37°C) […]"}}, "note": "“And” between values parts separate entries of the source, which are not always exact repeats. Equal values may be shown once."}
{"binder": "T4E8 (VHH, also called anti-CdtB VHH T4E8; source: E. coli Rosetta-gami 2(DE3)pLacI, pET32b+, purified (Ni-NTA)) VHH: QLQLVESGGGLVQAGGSLRLSCAASGMSFSTYTMGWYRQAPGKRRGLVATISSGGSTNYADSVKGRFTISRDNAKDTVYLQMNSLKPEDTAEYYCNVKGDYQTPNMGYWGQGTRVTVSS", "values": [{"measurement": "Kd", "setting": "[1]", "result": "2030 pM and 4440 pM"}, {"measurement": "kon", "setting": "[1]", "result": "53300 M⁻¹ s⁻¹ and 73600 M⁻¹ s⁻¹"}]}
{"binder": "T4B5 (VHH, also called anti-CdtB VHH T4B5; source: E. coli Rosetta-gami 2(DE3)pLacI, pET32b+, purified (Ni-NTA)) VHH: QLQLAESGGGLVQPGGSLRLSCAASGSIFSINVMGWYRQVPGKQREWVASITRGGGTLYADSVKGRFTISRDSAKNTVYLQMNSLKPEDTAVYYCNADLMEDSDSDYHEYWGQGTQVTVSS", "values": [{"measurement": "binding result", "setting": "[2]", "result": "binds"}]}
{"binder": "T4F3 (VHH, also called anti-CdtB VHH T4F3; source: E. coli Rosetta-gami 2(DE3)pLacI, pET32b+, purified (Ni-NTA)) VHH: QLQLVETGGGLVQPGGSLTLSCAASGFTLNYWHMGWYRQAPGKQRELVATISGHGITNYADSVKGRFTISRDDAKNSVYLQMNSLKPEDTAVYYCNFISRTNDWGQGTQVTVSS", "values": [{"measurement": "binding result", "setting": "[2]", "result": "binds"}]}
{"binder": "T4E5 (VHH, also called anti-CdtB VHH T4E5; source: E. coli Rosetta-gami 2(DE3)pLacI, pET32b+, purified (Ni-NTA)) VHH: QLQLVETGGGLVQPGGSLKLSCVASGSIFSINVMGWFRQASGKQREVVAQITRGGGTIYADSVKGRFTISRDDAKNSVYLQMNSLNPEDTAVYLCNADLMQGIDSEYEDYWGQGTQVTVSS", "values": [{"measurement": "kon", "setting": "[3]", "result": "424000 M⁻¹ s⁻¹ and 382000 M⁻¹ s⁻¹ and 306000 M⁻¹ s⁻¹"}]}
{"binder": "T2E7 (VHH, also called anti-PltB VHH T2E7; source: E. coli Rosetta-gami 2(DE3)pLacI, pET32b+, purified (Ni-NTA)) VHH: QLQLVESGGGLVQPGGSLRLSCAASGFTLDYYAIGWFRQAPGKERERVSCISGRDGGTYYADSVKGRFAISRDNAQNTVYLQMSRLKPEDTAAYYCAADYADNYCTGSFPPDYWGQGTQVTVSS", "values": [{"measurement": "binding result", "setting": "[4]", "result": "binds"}, {"measurement": "Kd", "setting": "[1]", "result": "629 pM and 618 pM and 911 pM"}, {"measurement": "koff", "setting": "[1]", "result": "0.000278 s⁻¹ and 0.000313 s⁻¹ and 0.000369 s⁻¹"}, {"measurement": "kon", "setting": "[1]", "result": "443000 M⁻¹ s⁻¹ and 507000 M⁻¹ s⁻¹ and 405000 M⁻¹ s⁻¹"}]}
{"binder": "T4C4 (VHH, also called anti-CdtB VHH T4C4; source: E. coli Rosetta-gami 2(DE3)pLacI, pET32b+, purified (Ni-NTA)) VHH: QVQLAESGGGLVQPGGSLRLSCAASGSIFSINVMGWYRQAPGKQRESVAVITRGGGTMYADSVKGRATISRDSAKNTVYLQMNSLKPEDTAVYYCNADLMQAVDSEYEDYWGQGTQVTVSS", "values": [{"measurement": "Kd", "setting": "[3]", "result": "284 pM and 110 pM"}, {"measurement": "koff", "setting": "[3]", "result": "0.000264 s⁻¹ and 0.00026 s⁻¹"}, {"measurement": "kon", "setting": "[3]", "result": "929000 M⁻¹ s⁻¹ and 2.36e+06 M⁻¹ s⁻¹"}]}
{"binder": "T4C11 (VHH, also called anti-CdtB VHH T4C11; source: E. coli Rosetta-gami 2(DE3)pLacI, pET32b+, purified (Ni-NTA)) VHH: QLQLVETGGGLVQPGGSLRLSCAASGSIFSINIMGWYRQAPGKQRESVAVITRGGGTMYADSVKGRFTISRDSAKNTVYLQMNSLKPEDTAVYYCNADLMQAVDSEYEDYWGQGTQVTVSS", "values": [{"measurement": "binding result", "setting": "[2]", "result": "binds"}]}
{"binder": "T4C12 (VHH, also called anti-CdtB VHH T4C12; source: E. coli Rosetta-gami 2(DE3)pLacI, pET32b+, purified (Ni-NTA)) VHH: QVQLAESGGGLVQPGGSLRLSCAASGSIFSINVMGWYRQAPGKQREFVAVITRGGSTDYADSVKGRFTISRDNAKNTVYLQMNSLKPEDTAVYYCNADLMQTSASEYEDCWGQGTQVTVSS", "values": [{"measurement": "Kd", "setting": "[3]", "result": "2840 pM and 1550 pM"}, {"measurement": "koff", "setting": "[3]", "result": "0.00121 s⁻¹ and 0.00243 s⁻¹"}]}
{"binder": "T2G9 (VHH, also called anti-PltB VHH T2G9; source: E. coli Rosetta-gami 2(DE3)pLacI, pET32b+, purified (Ni-NTA)) VHH: QVQLVETGGGSVQAGGSLRLSCAASGFTFDDYAIGWFRQAPGKEREMILCINSRGGSTSYYADSVKGRFTVSVNSAKNTAYLQMNSLKPEDTAVYYCAADVTPPHSCNALDAWGQGTLVTVSS", "values": [{"measurement": "binding result", "setting": "[4]", "result": "binds"}, {"measurement": "kon", "setting": "[1]", "result": "155000 M⁻¹ s⁻¹ and 139000 M⁻¹ s⁻¹ and 105000 M⁻¹ s⁻¹"}]}
